Assays:
[1] = biological target: T1, Cynomolgus monkey CD8a (cynomolgus monkey); assay: flow cytometry, cynomolgus PBMC, CD3+CD4- gate
T1 construct: whole, on cells; On transfected HEK293F cells (full length) or natively on cynomolgus PBMC T cells; also called cynomolgus CD8a-FL; cynomolgus monkey CD8α
Method: (§1) Binding of parental and two humanized CD8a-binding polypeptides described above was assessed by flow cytometry on isolated human T cells and on isolated cynomolgus monkey PBMC. The isolated cells were plated in a 96-well plate at 200,000 cells per well for cynomolgus monkey PBMC, and 50,000 cells per well for human T cells in FACS buffer (PBS, 1% BSA, 0.1% NaN₃, pH 7.4). […] FACS buffer alone was used as a secondary antibody-only control. Polypeptide dilutions were added to an equal volume of cells, and assay plates were incubated for 30 minutes at 4° C. After washing twice with 150 μL of FACS buffer per well, the cells were resuspended in FACS buffer with fluorescently-labeled anti-human antibody diluted 1:1000 to detect CD8α binding, and fluorescently labeled anti-CD3 antibody (clone SP34.2) diluted 1:40, and anti-CD4 antibody (clone OKT4) diluted 1:100. Assay plates were incubated at 4° C. for 20 minutes. After one additional wash with 150 μL of FACS buffer, CD8α binding was detected by flow cytometry on CD3+CD4− cells. Binding was measured on these cell populations as mean fluorescence at 647 nm. The data was plotted and analyzed using GraphPad Prism analysis software. Flow cytometric detection was performed on an ACEA Biosciences Novocyte-Quanteon Flow Cytometer. The results are shown in Table 6 and 7 and in FIGS. 4A-B.

[2] = biological target: T2, Human CD8a (human, UniProt P01732 22-235); assay: flow cytometry, isolated human T cells, CD3+CD4- gate
T2 construct: also called CD8α; human CD8a-FL
Method: as §1

[3] = biological target: T2, Human CD8a; assay: flow cytometry, isolated human T cells, CD4- gate, anti-human Fc detection
Method: FACS buffer with no polypeptide was used as a secondary antibody-only control. Polypeptide dilutions were added to an equal volume of cells, and assay plates were incubated for 30 minutes at 4° C. […] Assay plates were incubated at 4° C. for 20 minutes. […] The data was plotted and analyzed using GraphPad Prism analysis software. Flow cytometric detection was performed on an Intellicyt iQue Plus.

[4] = biological target: T2, Human CD8a; assay: flow cytometry, HEK293F cells transfected with full-length human CD8a (GFP+ gate)
Method: (§2) Binding of parental and two of the humanized CD8a-binding polypeptides described above was assessed by flow cytometry on transfected HEK293F cells. The HEK293F cells were transiently transfected with a plasmid encoding full length human or cynomolgus monkey CD8α followed by an IRES and GFP. The transfected cells were plated in a 96-well plate at 30,000 cells per well in FACS buffer (PBS, 1% BSA, 0.1% NaN₃, pH 7.4). Test polypeptides were then diluted to 2× the final concentration of 500 nM and 3-, 4-, and 5-fold serial dilutions were made. FACS buffer with no polypeptide was used as a secondary antibody-only control. Test polypeptides were added to an equal volume of cells, and assay plates were incubated for 30 minutes at 4° C. After washing twice with 150 μL of FACS buffer per well, the cells were resuspended in FACS buffer with fluorescently-labeled anti-human Fc antibody diluted 1:2000. Assay plates were incubated at 4° C. for 20 minutes. After one additional wash with 150 μL of FACS buffer, bound polypeptide was detected by flow cytometry. Flow cytometric detection was performed on an Intellicyt iQue Plus. CD8a-expressing transfected cells were gated as GFP positive, and polypeptide binding was measured as median fluorescence at 647 nm. The data was plotted and analyzed using GraphPad Prism analysis software.

[5] = biological target: T1, Cynomolgus monkey CD8a; assay: flow cytometry, HEK293F cells transfected with full-length cynomolgus CD8a (GFP+ gate)
Method: as §2

T2 sequence (P01732 22-235): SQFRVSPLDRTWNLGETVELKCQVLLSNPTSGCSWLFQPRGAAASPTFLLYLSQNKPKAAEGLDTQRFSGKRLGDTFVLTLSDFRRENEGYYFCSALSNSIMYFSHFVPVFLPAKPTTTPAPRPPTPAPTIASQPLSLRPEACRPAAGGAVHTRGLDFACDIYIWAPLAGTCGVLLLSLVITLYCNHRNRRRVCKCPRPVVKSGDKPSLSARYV

Kd [1]: 0.0737 nM
Kd [2]: 0.085 nM
Kd [3]: 0.106 nM
Kd [4]: 0.565 nM
Kd [5]: 0.0973 nM
B1: hzB7v10-xELL-Fc (Fc fusion)
chain: EVQLVESGGGEVQPGGSLRLSCAASGFTFDDYAMSWVRQAPGKGLEWVSTITWEGEGTDYAESVKGRFTISRDNAKNTVYLQMSSLRAEDTAVYYCAKGSPELQYDSWGQGTLVTVKPGGDKTHTCPPCPAPGGPSVFLFPPKPKDTLMISRTPEVTCVVVDVSHEDPEVKFNWYVDGVEVHNAKTKPREEQYNSTYRVVSVLTVLHQDWLNGKEYKCKVSNKALPAPIEKTISKAKGQPREPQVYTLPPSRDELTKNQVSLTCLVKGFYPSDIAVEWESNGQPENNYKTTPPVLDSDGSFFLYSKLTVDKSRWQQGNVFSCSVMHEALHNHYTQKSLSLSPGK
notes: Homodimeric VHH-human IgG1 Fc xELL fusion

— US20250320295A1 (INHIBRX BIOSCIENCES, published 2025)
